Data on 1 substance can be found in patent publication US20250346679A1.

The target in this experiment is mouse CD137, cell-surface (mouse) (UniProt P20334). The experiment can be described thus: cell-based or functional assay.
Sequence of mouse CD137, cell-surface (mouse) (P20334 24-256): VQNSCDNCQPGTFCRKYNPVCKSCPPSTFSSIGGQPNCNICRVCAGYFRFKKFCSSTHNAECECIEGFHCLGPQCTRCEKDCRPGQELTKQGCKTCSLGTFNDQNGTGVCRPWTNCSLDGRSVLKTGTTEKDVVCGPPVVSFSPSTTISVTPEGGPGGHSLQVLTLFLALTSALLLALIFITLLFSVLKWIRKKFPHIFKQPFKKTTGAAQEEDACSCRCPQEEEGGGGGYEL

G1-AA/Lob12.3 (antibody) yielded a +XL EC50 (nM), mouse CD137 DO11.10 T cell activation assay of 2.26 nM; a +XL Emax (IL-2 pg/ml), mouse CD137 DO11.10 T cell activation assay of 21300 pg/mL; an EC50 (nM), mIFN-γ release, OT-1 CD8+ T cell activation assay, with anti-hCH2 of 0.36 nM; an Emax (pg/ml), mIFN-γ release, OT-1 CD8+ T cell activation assay, with anti-hCH2 of 17800 pg/mL.
